B1: C2orf65 (parent)
chain: QLDWDELETNQQHFHALCHSLLVS
B2: SETD8 (parent)
chain: GKQAPRKKAQGKTQQNRKLTDFYP

Variants of: B1
Experiment: protein stability index of a GFP-peptide fusion (GPS, HEK-293T) (PSI 1-6); higher = more stable
Settings: c terminus: a fixed tail appended
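Further: lentivirally expressed fusions sorted by FACS into six bins by GFP to DsRed ratio, PSI derived from sequencing read proportions per bin multiplied by bin number.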

Protein stability index, by site and new letter:
E6: P 2.5 | M 1.83 | H 1.57 | G 2.13 | V 2.32 | C 1.95 | Q 1.84 | T 1.82 | Y 1.44 | L 2.34 | N 1.79 | R 1.96 | F 3.45 | S 1.66 | A 2.04 | D 1.9 | K 1.46 | I 1.81 | W 2.55
N10: F 1.69 | Q 2.07 | M 2.18 | P 2.31 | G 2.82 | V 1.62 | A 2.04 | C 1.76 | H 2.17 | W 2.25 | K 2 | L 1 | Y 1.99 | T 1.55 | I 2.19 | R 2.81 | D 2.87 | E 2.33 | S 2.2
Q11: G 2.62 | E 2.39 | Y 1.39 | N 2.34 | S 1.79 | H 2.07 | D 2.56 | M 2.39 | T 2.04 | R 2.29 | K 1.97 | C 1.9 | V 1.45 | F 2.13 | A 1.66 | L 2.23 | I 1.39 | W 2.01 | P 2.02
L7: Y 2.27 | N 2.84 | P 2.84 | I 1.82 | A 2.33 | Q 2.79 | G 2.6 | V 2.36 | E 3.03 | T 2.16 | K 2.79 | S 2.8 | C 2.5 | M 1.94 | F 2.13 | W 1.33 | R 2.16 | D 3.63 | H 2.18
E8: L 2.31 | D 2.11 | N 2.07 | M 2.73 | Y 1.87 | K 1.39 | V 1.21 | T 1.61 | F 1.57 | P 1.87 | I 2.01 | C 1.59 | S 1.67 | A 1.57 | W 2.9 | G 1.64 | R 1.99 | Q 1.89 | H 1.95
D5: H 2.04 | N 1.49 | T 2.18 | P 2.34 | L 1.22 | K 2 | F 2.47 | M 1.95 | C 1.55 | E 2.54 | A 2.01 | G 2.07 | V 1.66 | Y 2.31 | R 1.95 | S 1.83 | I 1.58 | W 1.18 | Q 1.57
T9: W 1.81 | C 2.21 | A 2.71 | D 2.39 | P 1.91 | R 1.61 | M 2.35 | K 1.97 | G 2.07 | L 1.52 | H 2.54 | Y 1.84 | V 3.67 | S 2.37 | N 1.56 | F 1.8 | E 2.88 | Q 2.75 | I 1.69
W4: G 2.99 | Y 2.56 | T 3.14 | A 2.93 | N 2.78 | K 2.85 | R 2.77 | I 3.03 | V 3.11 | S 3.2 | P 2.02 | L 2.4 | D 3.18 | Q 3.35 | H 2.69 | M 2.98 | F 2.54 | C 3.19
H13: K 2.02 | Q 2.36 | G 2.39 | M 1.65 | L 1.99 | C 2.31 | A 2.16 | N 2.35 | D 2.37 | P 2.63 | F 2.15 | I 1.71 | R 1.88 | E 2.89
Q12: M 1.83 | N 2.1 | E 2.43 | R 2.37 | P 2.73 | D 2.37 | G 2.69 | L 1.67 | W 2.6 | F 1.45 | K 1.84 | Y 1.48 | T 2.13 | C 2.06 | V 2.17 | I 2.55 | H 1.92 | S 2.62 | A 1.84
L2: K 2.4 | P 3.02 | H 2.51 | Q 2.42 | N 2.31 | I 1.78 | T 2.02 | S 2.17 | M 1.94 | C 1.95 | F 1.98 | V 2.31 | W 1.63 | A 2.68 | R 2.25 | Y 1.64 | E 2.97 | G 2.33 | D 2.55
D3: S 1.57 | K 1.83 | E 2.27 | C 1.85 | A 2.27 | G 2.85 | T 2.59 | R 1.85 | Q 2.1 | N 2.01 | I 2.23 | H 1.92 | L 1.45 | F 1.93 | Y 1.47 | W 3.03 | V 1.73 | P 2.07 | M 1.05
Q1: S 2.21 | P 2.48 | T 2.06 | D 2.67 | E 2.29 | K 1.75 | V 2.5 | M 2.46 | A 2.11 | W 1.51 | C 1.65 | G 2.55 | N 2.25 | L 1.64 | R 1.96 | F 1.81 | Y 1.68 | I 1.5 | H 2.22

Variants of: B2
Experiment: as above
Settings: c terminus: a fixed tail appended

Protein stability index of substitutions, site by site:
P24: N 2.18 | M 4.09 | L 3.56 | Y 2.73 | A 2.66 | G 4.31 | H 4.02 | R 2.67 | D 4.33 | K 3.09 | Q 3.65 | W 1.91 | S 3.43 | C 3.62 | F 3.48 | I 3.44
K18: V 3.75 | T 3.05 | Y 2.76 | S 3.51 | M 2.06 | P 2.96 | N 4.19 | L 2.56 | Q 3.45
F22: K 4.97 | P 4.98 | G 4.75 | A 4.61 | T 4.57 | M 4.7 | S 4.69 | I 4.13 | E 4.61 | L 4.51 | N 4.77 | R 3.6 | H 4.13 | D 3.15 | Q 4.17
L19: Q 3.84 | R 4.33 | N 4.73 | D 5.33 | E 4.62 | H 3.77 | W 2.97 | G 3.91 | F 3.27 | A 4.54 | Y 3.32 | K 4 | S 4.39
D21: T 3.9 | M 3.46 | F 2.59 | P 3.83 | C 4.41 | E 1.79 | N 3.24 | L 3.53 | R 3.46 | A 3.03 | Y 2.97 | V 3.21 | I 3.13 | H 3.57 | K 3.91
Y23: G 4.34 | C 4.28 | H 4.93 | K 5.33 | S 4.39 | D 4.64 | V 4.05 | Q 4.04 | P 4.44 | N 4.83 | T 5.12 | I 4.07 | L 3.96 | E 4.51
T20: F 3.06 | P 4.41 | I 3.29 | N 3.61 | Q 4.11 | H 3.94 | M 4.3 | C 2.54 | K 3.54 | E 4.22 | D 4.5

Reference: the supplement of paper PMC10567573
